In patent publication US11230581B2, “Peptides and combination of peptides for use in immunotherapy against ovarian cancer and other cancers” (Immatics Biotechnologies GmbH, priority 2015, dated 2022):

What follows are substances tested against HLA-A*02:01 (Homo sapiens, UniProt P04439, D140Y/D185E/D98H/E176V/E277Q/G131W/G231S/I119V/I121R/I166T/I218V/L300P/L318F/N151K/N90K/P208A/P217A/Q86G/Q94H/R138H/R169H/T345S) (assay: MHC binding assay (UV-ligand exchange, β2m ELISA, peptide exchange yield)). Details: binding of HLA-class I restricted peptides to HLA-A*02:01, UV-ligand exchange.
In short: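 Peptide-MHC complexes formed by UV-ligand exchange, cleaving a UV-sensitive placeholder peptide in favour of the test peptide. Exchange yield measured by ELISA: monomers diluted 100-fold onto streptavidin-coated plates, 1 h 37 °C, detected with 2 ug/ml HRP anti-β2m and TMB, absorbance at 450 nm.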

Row | Substance | Peptide exchange (MHC class I binding score, peptide exchange yield)
1 | 428 (KLGHTDILVGV; listed as Homo sapiens) [compound 428] | “++” (≥20% = ++)
2 | 462 (KLAKQPETV; listed as Homo sapiens) [compound 462] | “+++” (≥50 = +++)
3 | 96 (YIFTDNPAAV; listed as Homo sapiens) [compound 96] | “+++” (≥50 = +++)
4 | 38 (FLLEDDIHVS; listed as Homo sapiens) [compound 38] | “+++” (≥50 = +++)
5 | 174 (ALAQYLITA; listed as Homo sapiens) [compound 174] | “+++” (≥50 = +++)
6 | 69 (FQLDPSSGVLVTV; listed as Homo sapiens) [compound 69] | “+++” (≥50 = +++)
7 | 188 (GLFPVTPEAV; listed as Homo sapiens) [compound 188] | “+++” (≥50 = +++)
8 | 246 (LLWEVVSQL; listed as Homo sapiens) [compound 246] | “+++” (≥50 = +++)
9 | 355 (SIQQSIERLLV; listed as Homo sapiens) [compound 355] | “++” (≥20% = ++)
10 | 449 (KLAEGLDIQL; listed as Homo sapiens) [compound 449] | “+++” (≥50 = +++)
11 | 621 (VLMDRLPSLL; listed as Homo sapiens) [compound 621] | “++++” (≥75% = ++++)
12 | 147 (SLLEAVSFL; listed as Homo sapiens) [compound 147] | “+++” (≥50 = +++)
13 | 383 (ALLELENSVTL; listed as Homo sapiens) [compound 383] | “+++” (≥50 = +++)
14 | 80 (FLYDNLVESL; listed as Homo sapiens) [compound 80] | “++” (≥20% = ++)
15 | 585 (ALWDLAADKQTL; listed as Homo sapiens) [compound 585] | “++++” (≥75% = ++++)
16 | 182 (MLLEAPGIFL; listed as Homo sapiens) [compound 182] | “+++” (≥50 = +++)
17 | 42 (VLLQKIVSA; listed as Homo sapiens) [compound 42] | “+++” (≥50 = +++)
18 | 555 (YVLEGLKSV; listed as Homo sapiens) [compound 555] | “+++” (≥50 = +++)
19 | 503 (SLNHFTHSV; listed as Homo sapiens) [compound 503] | “+++” (≥50 = +++)
20 | 361 (ALYELEGTTV; listed as Homo sapiens) [compound 361] | “+++” (≥50 = +++)
21 | 177 (YLLPEEYTSTL; listed as Homo sapiens) [compound 177] | “++++” (≥75% = ++++)
22 | 223 (ALLENIALYL; listed as Homo sapiens) [compound 223] | “+++” (≥50 = +++)

Row | Substance | Peptide exchange (MHC class I binding score, peptide exchange yield)
23 | 216 (NLWEDPYYL; listed as Homo sapiens) [compound 216] | “+++” (≥50 = +++)
24 | 342 (HIYDKVMTV; listed as Homo sapiens) [compound 342] | “+++” (≥50 = +++)
25 | 83 (ILAPTVMMI; listed as Homo sapiens) [compound 83] | “+++” (≥50 = +++)
26 | 240 (ILLEQAFYL; listed as Homo sapiens) [compound 240] | “+++” (≥50 = +++)
27 | 479 (SLFGNSGILENV; listed as Homo sapiens) [compound 479] | “+++” (≥50 = +++)
28 | 392 (ALLHPQGFEV; listed as Homo sapiens) [compound 392] | “++” (≥20% = ++)
29 | 412 (YLDDLNEGVYI; listed as Homo sapiens) [compound 412] | “++” (≥20% = ++)
30 | 119 (FLYIGDIVSL; listed as Homo sapiens) [compound 119] | “++++” (≥75% = ++++)
31 | 486 (AVMESIQGV; listed as Homo sapiens) [compound 486] | “+++” (≥50 = +++)
32 | 102 (YLFESEGLVL; listed as Homo sapiens) [compound 102] | “+++” (≥50 = +++)
33 | 275 (YLVYILNEL; listed as Homo sapiens) [compound 275] | “++” (≥20% = ++)
34 | 541 (SMLEPVPEL; listed as Homo sapiens) [compound 541] | “+++” (≥50 = +++)
35 | 76 (ILIDSIYKV; listed as Homo sapiens) [compound 76] | “+++” (≥50 = +++)
36 | 332 (YLISELEAA; listed as Homo sapiens) [compound 332] | “+++” (≥50 = +++)
37 | 333 (FLPDANSSV; listed as Homo sapiens) [compound 333] | “++” (≥20% = ++)
38 | 408 (VLDDSIYLV; listed as Homo sapiens) [compound 408] | “++” (≥20% = ++)
39 | 192 (KMLDGASFTL; listed as Homo sapiens) [compound 192] | “+++” (≥50 = +++)
40 | 66 (FLDENIGGVAV; listed as Homo sapiens) [compound 66] | “+++” (≥50 = +++)
41 | 3 (SLASKLTTL; listed as Homo sapiens) [compound 3] | “++++” (≥75% = ++++)
42 | 53 (KMIETDILQKV; listed as Homo sapiens) [compound 53] | “++++” (≥75% = ++++)
43 | 561 (YLQLTQSEL; listed as Homo sapiens) [compound 561] | “+++” (≥50 = +++)
44 | 426 (RLADKSVLV; listed as Homo sapiens) [compound 426] | “+++” (≥50 = +++)

Row | Substance | Peptide exchange (MHC class I binding score, peptide exchange yield)
45 | 452 (ILLEHGADPNL; listed as Homo sapiens) [compound 452] | “+++” (≥50 = +++)
46 | 531 (YTLPIASSIRL; listed as Homo sapiens) [compound 531] | “+++” (≥50 = +++)
47 | 114 (SLVGEPILQNV; listed as Homo sapiens) [compound 114] | “++” (≥20% = ++)
48 | 454 (KLPPPPPQA; listed as Homo sapiens) [compound 454] | “+++” (≥50 = +++)
49 | 70 (GLLDYPVGV; listed as Homo sapiens) [compound 70] | “+++” (≥50 = +++)
50 | 129 (GLLDGGVDILL; listed as Homo sapiens) [compound 129] | “+++” (≥50 = +++)
51 | 161 (ALLEGVNTV; listed as Homo sapiens) [compound 161] | “+++” (≥50 = +++)
52 | 168 (KILDADIQL; listed as Homo sapiens) [compound 168] | “++++” (≥75% = ++++)
53 | 15 (VLLTFKIFL; listed as Homo sapiens) [compound 15] | “++” (≥20% = ++)
54 | 16 (VLFQGQASL; listed as Homo sapiens) [compound 16] | “+++” (≥50 = +++)
55 | 99 (ALVSKGLATV; listed as Homo sapiens) [compound 99] | “++” (≥20% = ++)
56 | 309 (GLFDGVPTTA; listed as Homo sapiens) [compound 309] | “+++” (≥50 = +++)
57 | 583 (ILANDGVLLAA; listed as Homo sapiens) [compound 583] | “+++” (≥50 = +++)
58 | 111 (YVWGFYPAEV; listed as Homo sapiens) [compound 111] | “+++” (≥50 = +++)
59 | 256 (FLPPEHTIVYI; listed as Homo sapiens) [compound 256] | “+++” (≥50 = +++)
60 | 307 (ALPVSLPQI; listed as Homo sapiens) [compound 307] | “+++” (≥50 = +++)
61 | 329 (FLVTLNNVEV; listed as Homo sapiens) [compound 329] | “++++” (≥75% = ++++)
62 | 85 (KMSELRVTL; listed as Homo sapiens) [compound 85] | “+++” (≥50 = +++)
63 | 165 (SLLDEIRAV; listed as Homo sapiens) [compound 165] | “+++” (≥50 = +++)
64 | 24 (SLSDGLEEV; listed as Homo sapiens) [compound 24] | “++” (≥20% = ++)
65 | 184 (YLMDINGKMWL; listed as Homo sapiens) [compound 184] | “+++” (≥50 = +++)
66 | 232 (ALLEAQDVELYL; listed as Homo sapiens) [compound 232] | “++” (≥20% = ++)
